From the supplement of paper PMC10567573

B1: MFF (parent)
chain: MAEISRIQYEMEYTEGISQRMRVP
B2: RIPK4 (parent)
chain: VIDLFDEQGLSALHLAAQGRHAQT

Variants of: B1
Assay: protein stability index of a GFP-peptide fusion (GPS, HEK-293T) (PSI 1-6); higher = more stable
Conditions: c terminus: a fixed tail appended
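Note: lentivirally expressed fusions sorted by FACS into six bins by GFP to DsRed ratio, PSI derived from sequencing read proportions per bin multiplied by bin number.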

Protein stability index, by site and new letter:
T14: L 2.07; F 1.65; C 2.24; W 1.97
R20: Q 2.3; K 2.72; P 2.73; L 2.1; S 2.27; H 2.22; G 2.14; C 2.41; M 2.13; D 3.56; I 2.05; V 2.17; N 2.46; A 2.01; T 2.66; F 2.08; W 1.67; E 3.1; Y 1.58
I7: W 2.02; Y 2.58
Y9: E 3.6; Q 3.35; M 2.42; C 2.78; N 3.07; A 3.31; F 2.11; T 3.22; K 2.95; S 3.42; D 3.85; V 2.15; R 2.88; L 2.28; G 3.6; W 2.28; I 1.71; P 3.57; H 3.09
M11: S 3.19; E 4.06; L 2.37; V 2.89; H 3.38; R 3.19; I 2.16; Q 3.35; Y 2.67; D 3.61; K 3.27; W 1.99; T 3.15; F 2.35; N 3.78; P 3.2; G 3.28; A 3.68; C 3.04
M21: P 3.59; G 3.62; H 3.6; C 2.32; Y 2.9; D 3.41; L 2.26; N 3.32; T 3.33; R 3.9; E 3.58; A 3.17; I 2.42; S 3.31; K 3.73; Q 3.12; V 2.79; W 1.91; F 2.38
V23: L 2.46; W 1.7; G 2.72; E 2.73; F 1.99; I 2.07; D 3.23; K 3.43; Y 2.41; S 2.51; H 2.54; Q 2.99; M 2.63; C 2.87; N 2.61; T 2.56; A 2.31; R 2.73; P 2.54
E10: I 1.6; Y 2.09; F 1.96; P 3.04; T 1.99; C 1.99; V 1.89; A 2.15; Q 2.76; K 2.66; D 2.74; N 2.55; G 2.67; R 2.05; M 2.08; H 2.42; W 2.72; S 2.74; L 1.66
E15: F 2.17; C 1.46; L 1.66; D 2.64; Y 2.03; N 3.14; I 2.11; H 2.21; P 1.96; S 1.94; Q 2.42; K 2.43; A 2.1; M 1.75; W 1.77; R 2.45; T 2.56; V 1.62; G 2.15
R22: P 2.56; D 2.6; N 2.36; T 2.98; Q 2.43; W 2.01; S 2.44; F 1.69; V 2.9; A 2.63; C 2.4; M 2.38; E 2.86; H 2.46; G 2.46; I 1.84; L 2.48; Y 2.23; K 2.8

Variants of: B2
Assay: as above
Conditions: c terminus: a fixed tail appended

Protein stability index of substitutions, site by site:
V1: A 3.82; C 2.88; F 1.88; D 4.32; K 3.92; I 2.43; G 3.61; E 4.09; H 3.45
